From the supplement of paper PMC12855868

B1: library; numbered along this chain (parent)
chain: MAAAGGARLLRAASAVLGGPAGRWLHHAGSRAGSSGLLRNRGPGGSAEASRSLSVSARARSSSEDKITVHFINRDGETLTTKGKVGDSLLDVVVENNLDIDGFGACEGTLACSTCHLIFEDHIYEKLDAITDEENDMLDLAYGLTDRSRLGCQICLTKSMDNMTVRVPETVADARQSIDVGKTS

Variants of: B1
Test: scaled log2 fold change in cell abundance, elesclomol vs control (0 = silent mean, 1 = nonsense mean) (scaled log2 ratio); higher = higher viability under elesclomol (loss of FDX1 cuproptosis function)
Conditions: glucose 10 mM
Method: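 Deep mutational scan of full-length human FDX1: a pooled saturation-mutagenesis ORF library (every residue 2-184 mutated to all 19 amino acids plus stop, and silent codons where available) was expressed by lentivirus in FDX1-knockout ABC1 (14 days) or HEK293T (11 days) cells grown with elesclomol (ES) or DMSO control. Variant abundance came from ORF sequencing. The log2 fold change (ES vs control, mean of duplicates) was centred on the silent-variant mean (0) and scaled to the nonsense-variant mean (1). Higher values mean greater viability under ES, i.e. loss of FDX1 function in cuproptosis.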

[1] = with ABC1 FDX1 KO, elesclomol 5 nM, 14 days
[2] = with HEK293T FDX1 KO, elesclomol 40 nM, 11 days
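Further: variant abundance is its share of total variant reads in each endpoint sample, from next-generation sequencing of the integrated ORF PCR-amplified out of genomic DNA.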

Variant | scaled log2 fold change [1] | scaled log2 fold change [2]
MAAAGGARLLRAASAVLGGPAGRWLHHAGSRAGSSGLLRNRGPGGSAEASRSLSVSARARSSSEDKITVHFINRDGETLTTKGKVGDSLLDVVVENNLDIDGFGACEGTLACSTCHLIFEDHIYEKLDAITDEENDMLDLAYGLTDRSRLGCQICLTKSMDNMTVRVPETVADARQSIDVGKAS | -0.44 | -0.711
MAAAGGARLLRAASAVLGGPAGRWLHHAGSRAGSSGLLRNRGPGGSAEASRSLSVSARARSSSEDKITVHFINRDGETLTTKGKVGDSLLDVVVENNLDIDGFGACEGTLACSTCHLIFEDHIYEKLDAITDEENDMLDLAYGLTDRSRLGCQICLTKSMDNMTVRVPETVADARQSIDVGKDS | 0.0532 | -0.222
MAAAGGARLLRAASEVLGGPAGRWLHHAGSRAGSSGLLRNRGPGGSAEASRSLSVSARARSSSEDKITVHFINRDGETLTTKGKVGDSLLDVVVENNLDIDGFGACEGTLACSTCHLIFEDHIYEKLDAITDEENDMLDLAYGLTDRSRLGCQICLTKSMDNMTVRVPETVADARQSIDVGKTS | 0.311 | -0.231
MAHAGGARLLRAASAVLGGPAGRWLHHAGSRAGSSGLLRNRGPGGSAEASRSLSVSARARSSSEDKITVHFINRDGETLTTKGKVGDSLLDVVVENNLDIDGFGACEGTLACSTCHLIFEDHIYEKLDAITDEENDMLDLAYGLTDRSRLGCQICLTKSMDNMTVRVPETVADARQSIDVGKTS | 0.204 | -0.0465
MAAAGGARLLRAASAVLCGPAGRWLHHAGSRAGSSGLLRNRGPGGSAEASRSLSVSARARSSSEDKITVHFINRDGETLTTKGKVGDSLLDVVVENNLDIDGFGACEGTLACSTCHLIFEDHIYEKLDAITDEENDMLDLAYGLTDRSRLGCQICLTKSMDNMTVRVPETVADARQSIDVGKTS | 0.14 | 0.923
MAAAGGARLLRAASAVLGGPAGRWLHHAGSRAGSSGLLRNRGPGGSAEASRSLSVSARARSSSEDKITVHFINRDGETLTTKGKVGDSLLDVVVENNLDIDGFGACEGTLACSTCHLIFEDHIYEKLDAITDEENDMLDLAYGLTDRSKLGCQICLTKSMDNMTVRVPETVADARQSIDVGKTS | 0.66 | -0.00324
MAAAGGARLLRAASAVLGGPAGRWLHHAGSRAGSSGLLRNRGPGGSAEASRSLSVSARARSSSEDKITVHFINRDGETLTTKGKVGDSLLDVVVENNLDIDGFGACEGTLACSTCHLIFEDHIYEKLDAITDEENDMLDLAYGLTDRSRLGCQIGLTKSMDNMTVRVPETVADARQSIDVGKTS | -0.0608 | -0.601
MKAAGGARLLRAASAVLGGPAGRWLHHAGSRAGSSGLLRNRGPGGSAEASRSLSVSARARSSSEDKITVHFINRDGETLTTKGKVGDSLLDVVVENNLDIDGFGACEGTLACSTCHLIFEDHIYEKLDAITDEENDMLDLAYGLTDRSRLGCQICLTKSMDNMTVRVPETVADARQSIDVGKTS | 0.0757 | -0.0727
MAAAGGARLLRAASAVLGGPAGRWLHHAGSRAGSSGLLRNRGPGGSAEASRSLSVSARARSSSEDKITVHFINRDGETLTTKGKVGDSLLDVVVENYLDIDGFGACEGTLACSTCHLIFEDHIYEKLDAITDEENDMLDLAYGLTDRSRLGCQICLTKSMDNMTVRVPETVADARQSIDVGKTS | -0.364 | -0.135
MAAAGGARLLRAASAVLGGPAGRWLHHAGSRAGSSGLLRNRGPGGSAEASRSLSVSARARSSSEDKITVHFINRDGETLTTKGKVGDSLLDVNVENNLDIDGFGACEGTLACSTCHLIFEDHIYEKLDAITDEENDMLDLAYGLTDRSRLGCQICLTKSMDNMTVRVPETVADARQSIDVGKTS | 0.524 | 0.217
MAAAGGARLLRAASAVLGKPAGRWLHHAGSRAGSSGLLRNRGPGGSAEASRSLSVSARARSSSEDKITVHFINRDGETLTTKGKVGDSLLDVVVENNLDIDGFGACEGTLACSTCHLIFEDHIYEKLDAITDEENDMLDLAYGLTDRSRLGCQICLTKSMDNMTVRVPETVADARQSIDVGKTS | -0.0528 | -0.256
MAAAGGARLLRAASAVLGGPAGRWLHHAGSRAGSSGLLRNRGPGGSAEASRSLSVSARARSSSEDKITVHFINRDGETLTTKGKVGDSLLDVVVENNLDIDGFGACEGTLACSTCHLIFEDHIYEKLDAITDEENDMLDLAYGLTDRSRLGCQICLTKSMDNMTVRVPETVADARQSIDVGGTS | 0.289 | 
MAAAGGIRLLRAASAVLGGPAGRWLHHAGSRAGSSGLLRNRGPGGSAEASRSLSVSARARSSSEDKITVHFINRDGETLTTKGKVGDSLLDVVVENNLDIDGFGACEGTLACSTCHLIFEDHIYEKLDAITDEENDMLDLAYGLTDRSRLGCQICLTKSMDNMTVRVPETVADARQSIDVGKTS | 0.0041 | -0.412
MAAAGGARLLRAASAVLGGPAGRWLHHAGSRAGSSGLLRNRGPGGSAEASRSLSVSARARSSSEDKITVHFINRDGETLTTKGKVGDSLLDVVVENNLDIDGFGACEGTLACSTCHLIFEDHITEKLDAITDEENDMLDLAYGLTDRSRLGCQICLTKSMDNMTVRVPETVADARQSIDVGKTS | 0.399 | -0.214
MAAAGGARLLRAASAVLGGPAGRWLHHAGSRAGSSGLLRNRGPGGSAEASRSLSVSARARSSSEDKITVHFINRDGETLTTKGKVGDSLLDVVVENNLDIDGFGACEGTLACITCHLIFEDHIYEKLDAITDEENDMLDLAYGLTDRSRLGCQICLTKSMDNMTVRVPETVADARQSIDVGKTS | 0.189 | -0.397
MAAAGGARLLRAASAVLGGPAGRWLHHAGSRAGSSGLLRNRGPGGSAEASRSLSVSARARSSSEDKITVHFINRDGETLTTKGKVGDSELDVVVENNLDIDGFGACEGTLACSTCHLIFEDHIYEKLDAITDEENDMLDLAYGLTDRSRLGCQICLTKSMDNMTVRVPETVADARQSIDVGKTS | 0.919 | 0.768
MAAAGGARLLRAASAVLGGPAGRWLHHAGSRAGSSGLLRNRGPGGSAEASRSLSVSARARSSSEDKITVHFINRDGETLTTKGKVGDSLLDVVVENNLDIDGFGACEGTLACSTCHLIFEDHIYEKLDAITDEENDMLDLAYGLTDRSRLGCQICLTMSMDNMTVRVPETVADARQSIDVGKTS | 0.185 | -0.505
